In patent US20140274782A1, “AFFINITY REAGENTS AND METHODS FOR DETECTION, PURIFICATION, AND PROTEOMIC ANALYSIS OF METHYLATED PROTEINS” (The Board of Trustees of the Leland Stanford Junior …, priority 2013, published 2014):

T1: G9a and GLP (Homo sapiens, UniProt Q96KQ7+Q9H9B1)
T1 sequence (Q96KQ7 2-1210 limits assumed): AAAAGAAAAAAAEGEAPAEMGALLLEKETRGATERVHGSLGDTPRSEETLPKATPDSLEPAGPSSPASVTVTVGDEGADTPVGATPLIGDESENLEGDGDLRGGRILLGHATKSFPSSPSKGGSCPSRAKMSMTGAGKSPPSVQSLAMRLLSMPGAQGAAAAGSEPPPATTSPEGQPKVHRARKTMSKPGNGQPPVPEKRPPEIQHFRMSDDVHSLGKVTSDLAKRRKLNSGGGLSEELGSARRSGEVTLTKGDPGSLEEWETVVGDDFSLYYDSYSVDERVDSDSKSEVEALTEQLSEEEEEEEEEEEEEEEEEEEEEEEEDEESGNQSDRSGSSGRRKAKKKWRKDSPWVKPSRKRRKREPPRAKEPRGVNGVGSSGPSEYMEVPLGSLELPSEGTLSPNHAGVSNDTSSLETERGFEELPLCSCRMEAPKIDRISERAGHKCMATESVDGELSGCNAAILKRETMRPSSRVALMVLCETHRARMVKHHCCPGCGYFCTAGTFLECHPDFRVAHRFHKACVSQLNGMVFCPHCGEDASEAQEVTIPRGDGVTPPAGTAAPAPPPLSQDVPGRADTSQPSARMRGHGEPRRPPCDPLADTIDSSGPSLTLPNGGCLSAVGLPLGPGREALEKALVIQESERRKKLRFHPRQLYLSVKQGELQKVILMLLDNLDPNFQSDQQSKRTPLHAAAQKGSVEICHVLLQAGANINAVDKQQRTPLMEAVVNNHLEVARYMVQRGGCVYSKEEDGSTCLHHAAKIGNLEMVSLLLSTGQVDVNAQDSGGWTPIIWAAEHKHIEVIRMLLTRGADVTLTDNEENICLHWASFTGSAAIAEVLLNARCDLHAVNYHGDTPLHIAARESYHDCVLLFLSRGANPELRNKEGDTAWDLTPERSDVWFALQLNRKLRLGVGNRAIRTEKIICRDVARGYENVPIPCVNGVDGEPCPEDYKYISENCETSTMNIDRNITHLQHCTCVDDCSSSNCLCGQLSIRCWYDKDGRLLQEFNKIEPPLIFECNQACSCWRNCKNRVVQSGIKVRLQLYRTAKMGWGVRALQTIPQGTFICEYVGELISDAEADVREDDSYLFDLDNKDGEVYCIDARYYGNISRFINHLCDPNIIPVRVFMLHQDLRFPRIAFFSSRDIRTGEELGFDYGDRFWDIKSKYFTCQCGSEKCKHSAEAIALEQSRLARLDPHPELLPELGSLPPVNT
T1 sequence (Q9H9B1 2-1298 limits assumed): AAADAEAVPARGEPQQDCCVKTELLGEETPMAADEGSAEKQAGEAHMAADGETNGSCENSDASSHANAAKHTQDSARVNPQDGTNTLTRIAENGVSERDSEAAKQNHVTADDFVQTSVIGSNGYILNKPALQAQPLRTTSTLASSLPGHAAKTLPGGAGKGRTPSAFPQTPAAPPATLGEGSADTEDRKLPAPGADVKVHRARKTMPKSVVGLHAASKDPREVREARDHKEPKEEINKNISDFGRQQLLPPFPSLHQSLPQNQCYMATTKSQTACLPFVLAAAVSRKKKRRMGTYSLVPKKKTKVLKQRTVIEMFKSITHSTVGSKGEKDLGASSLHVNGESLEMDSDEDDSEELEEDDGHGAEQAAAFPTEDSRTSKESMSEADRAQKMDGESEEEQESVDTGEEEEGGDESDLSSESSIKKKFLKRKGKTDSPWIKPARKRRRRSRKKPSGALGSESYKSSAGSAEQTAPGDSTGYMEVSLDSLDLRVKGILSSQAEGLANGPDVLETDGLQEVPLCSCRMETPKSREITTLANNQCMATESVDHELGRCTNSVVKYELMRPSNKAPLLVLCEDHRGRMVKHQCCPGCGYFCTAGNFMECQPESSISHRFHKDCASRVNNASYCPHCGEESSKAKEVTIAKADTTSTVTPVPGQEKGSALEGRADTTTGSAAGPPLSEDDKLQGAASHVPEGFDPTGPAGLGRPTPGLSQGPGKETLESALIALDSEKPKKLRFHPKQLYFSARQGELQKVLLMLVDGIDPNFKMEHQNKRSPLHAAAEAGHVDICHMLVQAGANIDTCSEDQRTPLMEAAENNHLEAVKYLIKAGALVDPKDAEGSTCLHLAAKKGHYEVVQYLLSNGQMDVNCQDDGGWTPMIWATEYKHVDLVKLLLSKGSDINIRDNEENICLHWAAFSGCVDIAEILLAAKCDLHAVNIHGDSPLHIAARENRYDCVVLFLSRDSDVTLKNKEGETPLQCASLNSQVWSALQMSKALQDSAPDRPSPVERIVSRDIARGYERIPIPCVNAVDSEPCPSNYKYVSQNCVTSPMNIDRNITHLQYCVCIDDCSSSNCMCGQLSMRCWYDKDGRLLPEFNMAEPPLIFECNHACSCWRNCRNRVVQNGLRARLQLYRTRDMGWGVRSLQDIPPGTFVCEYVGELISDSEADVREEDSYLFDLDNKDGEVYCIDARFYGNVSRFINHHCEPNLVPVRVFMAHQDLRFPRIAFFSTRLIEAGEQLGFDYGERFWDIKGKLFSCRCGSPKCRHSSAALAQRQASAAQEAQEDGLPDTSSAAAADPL

B1: XPC (protein, UniProt Q01831 2-940, looked up)
DNA repair protein …: ARKRAAGGEPRGRELRSQKSKAKSKARREEEEEDAFEDEKPPKKSLLSKVSQGKRKRGCSHPGGSADGPAKKKVAKVTVKSENLKVIKDEALSDGDDLRDFPSDLKKAHHLKRGATMNEDSNEEEEESENDWEEVEELSEPVLGDVRESTAFSRSLLPVKPVEIEIETPEQAKTRERSEKIKLEFETYLRRAMKRFNKGVHEDTHKVHLLCLLANGFYRNNICSQPDLHAIGLSIIPARFTRVLPRDVDTYYLSNLVKWFIGTFTVNAELSASEQDNLQTTLERRFAIYSARDDEELVHIFLLILRALQLLTRLVLSLQPIPLKSATAKGKKPSKERLTADPGGSSETSSQVLENHTKPKTSKGTKQEETFAKGTCRPSAKGKRNKGGRKKRSKPSSSEEDEGPGDKQEKATQRRPHGRERRVASRVSYKEESGSDEAGSGSDFELSSGEASDPSDEDSEPGPPKQRKAPAPQRTKAGSKSASRTHRGSHRKDPSLPAASSSSSSSKRGKKMCSDGEKAEKRSIAGIDQWLEVFCEQEEKWVCVDCVHGVVGQPLTCYKYATKPMTYVVGIDSDGWVRDVTQRYDPVWMTVTRKCRVDAEWWAETLRPYQSPFMDREKKEDLEFQAKHMDQPLPTAIGLYKNHPLYALKRHLLKYEAIYPETAAILGYCRGEAVYSRDCVHTLHSRDTWLKKARVVRLGEVPYKMVKGFSNRARKARLAEPQLREENDLGLFGYWQTEEYQPPVAVDGKVPRNEFGNVYLFLPSMMPIGCVQLNLPNLHRVARKLDIDCVQAITGFDFHGGYSHPVTDGYIVCEEFKDVLLTAWENEQAVIERKEKEKKEKRALGNWKLLAKGLLIRERLKRRYGPKSEAAAPHTDAGGGLSSDEEEGTSSQAEAARILAASWPQNREDEEKQKLKGGPKKTKREKKAAASHLFPFEQL
B2: PAICS (protein, UniProt P22234 2-425, looked up)
Bifunctional …: ATAEVLNIGKKLYEGKTKEVYELLDSPGKVLLQSKDQITAGNAARKNHLEGKAAISNKITSCIFQLLQEAGIKTAFTRKCGETAFIAPQCEMIPIEWVCRRIATGSFLKRNPGVKEGYKFYPPKVELFFKDDANNDPQWSEEQLIAAKFCFAGLLIGQTEVDIMSHATQAIFEILEKSWLPQNCTLVDMKIEFGVDVTTKEIVLADVIDNDSWRLWPSGDRSQQKDKQSYRDLKEVTPEGLQMVKKNFEWVAERVELLLKSESQCRVVVLMGSTSDLGHCEKIKKACGNFGIPCELRVTSAHKGPDETLRIKAEYEGDGIPTVFVAVAGRSNGLGPVMSGNTAYPVISCPPLTPDWGVQDVWSSLRLPSGLGCSTVLSPEGSAQFAAQIFGLSNHLVWSKLRASILNTWISLKQADKKIRECNL
B3: IARS (protein, UniProt P41252 1-1262, looked up)
Isoleucine--tRNA ligase, …: MLQQVPENINFPAEEEKILEFWTEFNCFQECLKQSKHKPKFTFYDGPPFATGLPHYGHILAGTIKDIVTRYAHQSGFHVDRRFGWDCHGLPVEYEIDKTLGIRGPEDVAKMGITEYNNQCRAIVMRYSAEWKSTVSRLGRWIDFDNDYKTLYPQFMESVWWVFKQLYDKGLVYRGVKVMPFSTACNTPLSNFESHQNYKDVQDPSVFVTFPLEEDETVSLVAWTTTPWTLPSNLAVCVNPEMQYVKIKDVARGRLLILMEARLSALYKLESDYEILERFPGAYLKGKKYRPLFDYFLKCKENGAFTVLVDNYVKEEEGTGVVHQAPYFGAEDYRVCMDFNIIRKDSLPVCPVDASGCFTTEVTDFAGQYVKDADKSIIRTLKEQGRLLVATTFTHSYPFCWRSDTPLIYKAVPSWFVRVENMVDQLLRNNDLCYWVPELVREKRFGNWLKDARDWTISRNRYWGTPIPLWVSDDFEEVVCIGSVAELEELSGAKISDLHRESVDHLTIPSRCGKGSLHRISEVFDCWFESGSMPYAQVHYPFENKREFEDAFPADFIAEGIDQTRGWFYTLLVLATALFGQPPFKNVIVNGLVLASDGQKMSKRKKNYPDPVSIIQKYGADALRLYLINSPVVRAENLRFKEEGVRDVLKDVLLPWYNAYRFLIQNVLRLQKEEEIEFLYNENTVRESPNITDRWILSFMQSLIGFFETEMAAYRLYTVVPRLVKFVDILTNWYVRMNRRRLKGENGMEDCVMALETLFSVLLSLCRLMAPYTPFLTELMYQNLKVLIDPVSVQDKDTLSIHYLMLPRVREELIDKKTESAVSQMQSVIELGRVIRDRKTIPIKYPLKEIVVIHQDPEALKDIKSLEKYIIEELNVRKVTLSTDKNKYGIRLRAEPDHMVLGKRLKGAFKAVMTSIKQLSSEELEQFQKTGTIVVEGHELHDEDIRLMYTFDQATGGTAQFEAHSDAQALVLLDVTPDQSMVDEGMAREVINRIQKLRKKCNLVPTDEITVYYKAKSEGTYLNSVIESHTEFIFTTIKAPLKPYPVSPSDKVLIQEKTQLKGSELEITLTRGSSLPGPACAYVNLNICANGSEQGGVLLLENPKGDNRLDLLKLKSVVTSIFGVKNTELAVFHDETEIQNQTDLLSLSGKTLCVTAGSAPSLINSSSTLLCQYINLQLLNAKPQECLMGTVGTLLLENPLGQNGLTHQGLLYEAAKVFGLRSRKLKLFLNETQTQEITEDIPVKTLNMKTVYVSVLPTTADF

Target: T1, G9a and GLP
Test: Triple SILAC pull-down after UNC0638 treatment of 293T cells, DMSO/UNC0638 ratio of protein captured by 3×MBT;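 note: mass spectrometry (Q-Exactive) SILAC quantitation, DMSO/UNC0638 ratio computed after subtracting 3×MBTD355N mutant pull-down background, only proteins with at least twofold 3×MBT over mutant signal considered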
Type: cell-based
Design: endogenous in cells; host or cells: HEK 293T
Settings: SILAC ratio DMSO relative to UNC0638, pull-down with 3xMBT; UNC0638 in heavy SILAC media; all values in log base 2

In order of falling “Relative to UNC0638 UNC Heavy” value:
1. B1  0.03 log base 2
2. B2  −0.03 log base 2
3. B3  −0.19 log base 2

Same assay, conditions: SILAC ratio DMSO relative to UNC0638, pull-down with 3xMBT; UNC0638 in light SILAC media; all values in log base 2

In order of rising “Relative to UNC0638 UNC Light” value:
1. B1  0.03 log base 2
2. B2  0.05 log base 2
3. B3  0.21 log base 2

Same assay, conditions: average of UNC Light and UNC Heavy experiments; all values in log base 2

In order of falling “Relative to UNC0638 Average” value:
1. B1  0.03 log base 2
2. B2  0.01 log base 2
3. B3  0.01 log base 2

System: 3×MBT domain of L3MBTL1
Test: Triple SILAC pull-down, 3xMBT/3xMBTD355N ratio (cytoplasmic, nuclear and chromatin fractions of 293T cells);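 note: proteins quantified with MaxQuant, requiring at least two unique peptides and quantification in both label directions, normalized to the mean of proteins from a digested loading control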
Type: binding, human
Settings: SILAC ratio 3xMBT vs 3xMBTD355N pull-down, 293T cells; experiment with UNC0638 in heavy SILAC media; all values in log base 2

In order of falling “3xMBT/D355N UNC Heavy” value:
1. B1  2.62 log base 2
2. B3  2.10 log base 2
3. B2  1.12 log base 2

Same assay, conditions: SILAC ratio 3xMBT vs 3xMBTD355N pull-down, 293T cells; experiment with UNC0638 in light SILAC media; all values in log base 2

In order of falling “3xMBT/D355N UNC Light” value:
1. B1  3.99 log base 2
2. B3  2.25 log base 2
3. B2  1.04 log base 2
